From article PMC8257933

Columns and labels:
[1] = biological target: NTCP-V5-His G60LXXXA64L/G233LXXXG237L (TMD2/7) double mutant; assay: co-IP (IP anti-FLAG agarose, western blot anti-V5, ImageJ band quantification); conditions: HEK293 cells co-transfected with NTCP-FLAG and NTCP-V5-His; n = 3 independent experiments; parent: est. 100; read off a plot
[2] = biological target: NTCP-V5-His G233LXXXG237L (TMD7) mutant; assay: as above; conditions: HEK293 cells co-transfected with NTCP-FLAG and NTCP-V5-His; n = 3 independent experiments; parent: est. 100; read off a plot

With “NTCP wild type, NTCP-FLAG and NTCP-V5-His expressed in HEK293 cells (from UniProt Q14973) binder (NTCP-FLAG): G60L; A64L; G233L; G237L; target (NTCP-V5): G60L; A64L; G233L; G237L” the percent of parent [1] was 130 % of control.
In the case of “NTCP wild type, NTCP-FLAG and NTCP-V5-His expressed in HEK293 cells (from UniProt Q14973) binder (NTCP-FLAG): G60L; A64L; target (NTCP-V5): G233L; G237L”, the percent of parent [2] is reported as 120 % of control.
